The target of experiment [1] is C5 (Homo sapiens, UniProt P01031). The experiment in a line: Monoclonal phage screening ELISA, human C5. The experiment is classed as binding. A general note: An ELISA detects its analyte on a solid surface through an enzyme-linked reagent.
Experiment [2] addresses rat C5 protein (Rattus norvegicus, UniProt P08650). The experiment in a line: Monoclonal phage screening ELISA, rat C5. The experiment is classed as binding. The procedure: For the C5 libraries, a single round of enrichment was performed with either human or rat C5 protein. […] Phage were blocked for 30 minutes. Biotinylated antigen was added to the blocked phage at a concentration of 100 nM and incubated at room temperature with mixing.
Colonies were picked into a 96-well culture plate containing selective medium 2TY supplemented with 1% Glucose and 100 μg/ml Carbenicillin and was incubated at 37° C. until wells reached mid-log phase of growth prior to addition of M13K07 helper phage. The block was incubated without shaking for 1 hour to achieve infection and phage production using continued culture in selective media supplemented with 50 μg/ml Kanamycin and 100 μg/ml Carbenicillin.
[…] Negative control plate and Anti-myc tag plate were also prepared.
Monoclonal phage rescue supernatants were blocked with an equal volume of a 2% milk (w/v) in PBS, for serum albumin proteins, or 2% BSA and 2% milk (w/v) in PBS solution. The coating solution was removed from coated Nunc plates and each plate was blocked with 1% BSA in PBS (for C5 libraries) or 1% milk powder (for albumin library). Both phage and Nunc plates were blocked for 1 hour at room temperature. Nunc plates were washed using a 96-well microplate washer (BioTek) with a PBS solution contain 0.1% Tween20 (Sigma Aldrich). 100 of blocked phage solution was added to each well of Nunc MaxiSorp plate and left shaking at room temperature for 1 hour. Plates were washed and dried as previously described. 100 of an Anti-M13-Horse radish peroxidase conjugated antibody (GE Healthcare) diluted (1:5,000) in a 1% BSA or milk solution was added to each well and left shaking at room temperature for 1 hour. Plates were washed again and 50 μL of TMB solution (Merck Millipore) was added to each well. Plates were left shaking for 10 minutes. Absorbance was measured at 630 nm and 490 nm. Binding signals were obtained where Absorbance at 630 nm was >3-times the signal upon irrelevant antigen.
By monoclonal phage ELISA the following ultralong CDR-H3 sequences were identified as binders (OD>0.2 AU): […]

The mark [3] stands for this setting: anti-C5 ultralong CDR-H3, binder = OD>0.2 AU.
The mark [4] stands for this setting: knob domain of the anti-C5 ultralong CDR-H3.

Chain of C5 (P01031 19-1676): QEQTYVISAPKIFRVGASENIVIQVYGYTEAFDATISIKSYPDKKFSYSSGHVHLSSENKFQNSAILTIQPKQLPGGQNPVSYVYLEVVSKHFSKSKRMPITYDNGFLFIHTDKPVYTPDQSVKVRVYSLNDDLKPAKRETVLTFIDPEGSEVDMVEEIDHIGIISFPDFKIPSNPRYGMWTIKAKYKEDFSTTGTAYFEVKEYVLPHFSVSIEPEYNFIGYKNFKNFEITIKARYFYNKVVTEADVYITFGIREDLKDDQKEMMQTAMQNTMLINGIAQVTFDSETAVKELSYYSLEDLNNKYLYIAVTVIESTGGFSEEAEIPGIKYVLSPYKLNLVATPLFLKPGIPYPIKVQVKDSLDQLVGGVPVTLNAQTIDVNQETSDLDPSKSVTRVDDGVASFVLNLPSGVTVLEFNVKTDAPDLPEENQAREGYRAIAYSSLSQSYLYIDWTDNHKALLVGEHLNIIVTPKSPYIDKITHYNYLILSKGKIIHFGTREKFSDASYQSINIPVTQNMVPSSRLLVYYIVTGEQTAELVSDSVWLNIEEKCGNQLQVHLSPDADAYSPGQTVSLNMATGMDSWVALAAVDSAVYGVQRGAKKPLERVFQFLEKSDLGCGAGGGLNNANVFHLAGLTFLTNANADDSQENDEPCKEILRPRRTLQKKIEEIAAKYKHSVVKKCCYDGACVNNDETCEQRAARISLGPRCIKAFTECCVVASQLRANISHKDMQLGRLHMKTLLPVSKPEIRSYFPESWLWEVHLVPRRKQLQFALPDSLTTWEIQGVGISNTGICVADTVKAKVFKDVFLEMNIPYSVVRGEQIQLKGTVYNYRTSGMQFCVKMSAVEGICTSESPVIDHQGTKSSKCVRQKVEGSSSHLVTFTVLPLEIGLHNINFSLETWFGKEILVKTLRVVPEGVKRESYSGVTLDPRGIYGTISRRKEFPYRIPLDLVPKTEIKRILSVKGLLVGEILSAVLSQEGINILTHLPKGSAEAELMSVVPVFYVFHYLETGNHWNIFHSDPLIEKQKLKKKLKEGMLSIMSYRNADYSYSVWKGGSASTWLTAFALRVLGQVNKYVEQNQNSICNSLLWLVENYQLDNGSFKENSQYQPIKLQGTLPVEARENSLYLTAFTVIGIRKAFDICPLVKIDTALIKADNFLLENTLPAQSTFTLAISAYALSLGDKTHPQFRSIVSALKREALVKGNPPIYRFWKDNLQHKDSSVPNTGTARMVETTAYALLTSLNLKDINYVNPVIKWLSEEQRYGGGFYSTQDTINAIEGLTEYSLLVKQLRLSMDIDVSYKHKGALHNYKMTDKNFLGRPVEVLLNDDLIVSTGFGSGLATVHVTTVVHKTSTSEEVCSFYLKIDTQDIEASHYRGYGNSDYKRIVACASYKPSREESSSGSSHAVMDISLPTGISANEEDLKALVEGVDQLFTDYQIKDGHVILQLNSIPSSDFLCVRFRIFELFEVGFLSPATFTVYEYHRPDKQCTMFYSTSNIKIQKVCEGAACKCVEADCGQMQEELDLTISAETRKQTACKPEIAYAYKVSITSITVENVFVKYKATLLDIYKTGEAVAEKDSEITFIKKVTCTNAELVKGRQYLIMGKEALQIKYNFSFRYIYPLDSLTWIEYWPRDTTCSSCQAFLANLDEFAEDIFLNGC
Chain of rat C5 protein (P08650 19-674 limits assumed): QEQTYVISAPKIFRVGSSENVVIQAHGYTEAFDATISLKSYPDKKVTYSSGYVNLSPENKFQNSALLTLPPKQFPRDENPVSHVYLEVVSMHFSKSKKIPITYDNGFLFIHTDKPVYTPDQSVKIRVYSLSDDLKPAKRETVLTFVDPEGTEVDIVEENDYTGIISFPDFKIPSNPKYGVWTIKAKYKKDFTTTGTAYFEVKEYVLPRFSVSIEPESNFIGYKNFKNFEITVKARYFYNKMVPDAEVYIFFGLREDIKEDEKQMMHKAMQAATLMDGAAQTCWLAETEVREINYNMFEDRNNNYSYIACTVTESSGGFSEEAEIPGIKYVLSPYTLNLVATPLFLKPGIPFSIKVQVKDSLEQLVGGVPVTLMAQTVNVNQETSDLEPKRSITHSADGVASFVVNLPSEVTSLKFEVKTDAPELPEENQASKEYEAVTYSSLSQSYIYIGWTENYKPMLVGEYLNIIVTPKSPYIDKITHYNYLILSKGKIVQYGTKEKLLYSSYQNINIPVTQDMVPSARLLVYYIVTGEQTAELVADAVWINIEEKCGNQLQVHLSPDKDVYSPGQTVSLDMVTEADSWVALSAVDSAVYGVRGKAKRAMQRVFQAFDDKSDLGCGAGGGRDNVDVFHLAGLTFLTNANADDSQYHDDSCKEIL
Chain of rat C5 protein (P08650 679-1681 limits assumed): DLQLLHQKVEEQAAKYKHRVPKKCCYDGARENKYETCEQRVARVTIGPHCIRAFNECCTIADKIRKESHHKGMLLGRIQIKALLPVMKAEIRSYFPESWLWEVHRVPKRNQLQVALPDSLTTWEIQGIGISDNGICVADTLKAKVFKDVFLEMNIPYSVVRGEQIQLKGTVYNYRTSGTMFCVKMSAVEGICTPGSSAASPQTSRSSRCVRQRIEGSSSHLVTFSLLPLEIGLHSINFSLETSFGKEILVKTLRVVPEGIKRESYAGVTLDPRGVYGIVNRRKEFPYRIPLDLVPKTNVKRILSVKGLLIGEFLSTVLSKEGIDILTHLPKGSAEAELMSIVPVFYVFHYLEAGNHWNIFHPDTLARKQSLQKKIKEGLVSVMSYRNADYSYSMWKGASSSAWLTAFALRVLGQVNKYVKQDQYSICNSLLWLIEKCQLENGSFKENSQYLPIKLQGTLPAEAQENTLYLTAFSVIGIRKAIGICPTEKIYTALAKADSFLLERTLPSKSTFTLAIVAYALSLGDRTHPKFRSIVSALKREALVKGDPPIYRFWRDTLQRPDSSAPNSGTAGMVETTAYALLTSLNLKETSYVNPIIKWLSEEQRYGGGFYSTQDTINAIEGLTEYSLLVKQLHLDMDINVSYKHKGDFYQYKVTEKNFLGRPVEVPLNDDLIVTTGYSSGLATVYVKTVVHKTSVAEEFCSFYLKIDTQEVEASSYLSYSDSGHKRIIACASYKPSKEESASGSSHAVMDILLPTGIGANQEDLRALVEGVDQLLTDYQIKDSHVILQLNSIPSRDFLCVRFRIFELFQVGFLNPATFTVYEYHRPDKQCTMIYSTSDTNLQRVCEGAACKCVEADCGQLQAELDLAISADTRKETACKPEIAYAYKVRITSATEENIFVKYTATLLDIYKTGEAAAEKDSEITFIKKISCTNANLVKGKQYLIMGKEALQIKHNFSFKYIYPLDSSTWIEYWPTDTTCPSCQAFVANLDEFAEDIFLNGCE

Take “553 (TTVHQKTKKTCPRGYHYNDRCEFFNTCRVEECCLNGVVNTYGICEYEGGSATYTYEWYVD; Anti-C5 ultralong CDR-H3) [compound 553]”: the Specificity result in experiment [1] (setting [3]) is “Human and Rat”; in experiment [2] (setting [3]), “Human and Rat”.

“552 (TTVHQRTKEERTCPSGCSWFSGCWDTYRCGPSVCCRDGRYGCAAIICRDTYEWYVD; Anti-C5 ultralong CDR-H3) [compound 552]”: the Specificity entry in experiment [1] (setting [3]) is “Human and Rat”; in experiment [2] (setting [3]), “Human and Rat”.

As for “599 (SCPLGYAINDRCDDLKTCGPDECCLNGVVNAYGICEYEGESAT; Anti-C5 ultralong CDR-H3 knob domain) [compound 599]”, the Specificity entry is “Human and Rat” in experiment [1] (setting [4]); “Human and Rat” in experiment [2] (setting [4]).

In the case of “554 (TTVHQKTKKTCPRGYHYNDRCDFFNTCRVEECCLNGVVNTYGICEYEGGSATYTYEWYVD; Anti-C5 ultralong CDR-H3) [compound 554]”, the Specificity entry in experiment [1] (setting [3]) is “Human and Rat”; in experiment [2] (setting [3]) it was “Human and Rat”.

For the substance “595 (TCPSGCSWFSGCWDTYRCGPSVCCRDGRYGCAAIICRDT; Anti-C5 ultralong CDR-H3 knob domain) [compound 595]”, the Specificity result in experiment [1] (setting [4]) is “Human and Rat”; in experiment [2] (setting [4]), “Human and Rat”.

The values are drawn from patent publication US20240024520A1, “AUTONOMOUS KNOB DOMAIN PEPTIDES” (UCB BIOPHARMA SRL, priority 2020, published 2024).
